# Experimental data: US20250339531A1, “DUX4 POLYPEPTIDES AND NUCLEIC ACIDS FOR TREATING INFLAMMATORY AND AUTOIMMUNE CONDITIONS” (Fred Hutchinson Cancer Center, priority 2021, published 2025)
# B1: Q92973 (protein, UniProt Q92973 1-898, looked up)
# chain: MVWDRQTKMEYEWKPDEQGLQQILQLLKESQSPDTTIQRTVQQKLEQLNQYPDFNNYLIFVLTKLKSEDEPTRSLSGLILKNNVKAHFQNFPNGVTDFIKSECLNNIGDSSPLIRATVGILITTIASKGELQNWPDLLPKLCSLLDSEDYNTCEGAFGALQKICEDSAEILDSDVLDRPLNIMIPKFLQFFKHSSPKIRSHAVACVNQFIISRTQALMLHIDSFIENLFALAGDEEPEVRKNVCRALVMLLEVRMDRLLPHMHNIVEYMLQRTQDQDENVALEACEFWLTLAEQPICKDVLVRHLPKLIPVLVNGMKYSDIDIILLKGDVEEDETIPDSEQDIRPRFHRSRTVAQQHDEDGIEEEDDDDDEIDDDDTISDWNLRKCSAAALDVLANVYRDELLPHILPLLKELLFHHEWVVKESGILVLGAIAEGCMQGMIPYLPELIPHLIQCLSDKKALVRSITCWTLSRYAHWVVSQPPDTYLKPLMTELLKRILDSNKRVQEAACSAFATLEEEACTELVPYLAYILDTLVFAFSKYQHKNLLILYDAIGTLADSVGHHLNKPEYIQMLMPPLIQKWNMLKDEDKDLFPLLECLSSVATALQSGFLPYCEPVYQRCVNLVQKTLAQAMLNNAQPDQYEAPDKDFMIVALDLLSGLAEGLGGNIEQLVARSNILTLMYQCMQDKMPEVRQSSFALLGDLTKACFQHVKPCIADFMPILGTNLNPEFISVCNNATWAIGEISIQMGIEMQPYIPMVLHQLVEIINRPNTPKTLLENTAITIGRLGYVCPQEVAPMLQQFIRPWCTSLRNIRDNEEKDSAFRGICTMISVNPSGVIQDFIFFCDAVASWINPKDDLRDMFCKILHGFKNQVGDENWRRFSDQFPLPLKERLAAFYGV
# modifications: full-length
# B2: Q9NQC3 (protein, UniProt Q9NQC3 1-1192, looked up)
# chain: MEDLDQSPLVSSSDSPPRPQPAFKYQFVREPEDEEEEEEEEEEDEDEDLEELEVLERKPAAGLSAAPVPTAPAAGAPLMDFGNDFVPPAPRGPLPAAPPVAPERQPSWDPSPVSSTVPAPSPLSAAAVSPSKLPEDDEPPARPPPPPPASVSPQAEPVWTPPAPAPAAPPSTPAAPKRRGSSGSVDETLFALPAASEPVIRSSAENMDLKEQPGNTISAGQEDFPSVLLETAASLPSLSPLSAASFKEHEYLGNLSTVLPTEGTLQENVSEASKEVSEKAKTLLIDRDLTEFSELEYSEMGSSFSVSPKAESAVIVANPREEIIVKNKDEEEKLVSNNILHNQQELPTALTKLVKEDEVVSSEKAKDSFNEKRVAVEAPMREEYADFKPFERVWEVKDSKEDSDMLAAGGKIESNLESKVDKKCFADSLEQTNHEKDSESSNDDTSFPSTPEGIKDRSGAYITCAPFNPAATESIATNIFPLLGDPTSENKTDEKKIEEKKAQIVTEKNTSTKTSNPFLVAAQDSETDYVTTDNLTKVTEEVVANMPEGLTPDLVQEACESELNEVTGTKIAYETKMDLVQTSEVMQESLYPAAQLCPSFEESEATPSPVLPDIVMEAPLNSAVPSAGASVIQPSSSPLEASSVNYESIKHEPENPPPYEEAMSVSLKKVSGIKEEIKEPENINAALQETEAPYISIACDLIKETKLSAEPAPDFSDYSEMAKVEQPVPDHSELVEDSSPDSEPVDLFSDDSIPDVPQKQDETVMLVKESLTETSFESMIEYENKEKLSALPPEGGKPYLESFKLSLDNTKDTLLPDEVSTLSKKEKIPLQMEELSTAVYSNDDLFISKEAQIRETETFSDSSPIEIIDEFPTLISSKTDSFSKLAREYTDLEVSHKSEIANAPDGAGSLPCTELPHDLSLKNIQPKVEEKISFSDDFSKNGSATSKVLLLPPDVSALATQAEIESIVKPKVLVKEAEKKLPSDTEKEDRSPSAIFSAELSKTSVVDLLYWRDIKKTGVVFGASLFLLLSLTVFSIVSVTAYIALALLSVTISFRIYKGVIQAIQKSDEGHPFRAYLESEVAISEELVQKYSNSALGHVNCTIKELRRLFLVDDLVDSLKFAVLMWVFTYVGALFNGLTLLILALISLFSVPVIYERHQAQIDHYLGLANKNVKDAMAKIQAKIPGLKRKAE
# modifications: full-length
# B3: P42224 (protein, UniProt P42224 1-750, looked up)
# chain: MSQWYELQQLDSKFLEQVHQLYDDSFPMEIRQYLAQWLEKQDWEHAANDVSFATIRFHDLLSQLDDQYSRFSLENNFLLQHNIRKSKRNLQDNFQEDPIQMSMIIYSCLKEERKILENAQRFNQAQSGNIQSTVMLDKQKELDSKVRNVKDKVMCIEHEIKSLEDLQDEYDFKCKTLQNREHETNGVAKSDQKQEQLLLKKMYLMLDNKRKEVVHKIIELLNVTELTQNALINDELVEWKRRQQSACIGGPPNACLDQLQNWFTIVAESLQQVRQQLKKLEELEQKYTYEHDPITKNKQVLWDRTFSLFQQLIQSSFVVERQPCMPTHPQRPLVLKTGVQFTVKLRLLVKLQELNYNLKVKVLFDKDVNERNTVKGFRKFNILGTHTKVMNMEESTNGSLAAEFRHLQLKEQKNAGTRTNEGPLIVTEELHSLSFETQLCQPGLVIDLETTSLPVVVISNVSQLPSGWASILWYNMLVAEPRNLSFFLTPPCARWAQLSEVLSWQFSSVTKRGLNVDQLNMLGEKLLGPNASPDGLIPWTRFCKENINDKNFPFWLWIESILELIKKHLLPLWNDGCIMGFISKERERALLKDQQPGTFLLRFSESSREGAITFTWVERSQNGGEPDFHAVEPYTKKELSAVTFPDIIRNYKVMAAENIPENPLKYLYPNIDKDHAFGKYYSRPKEAPEPMELDGPKGTGYIKTELISVSEVHPSRLQTTDNLLPMSPEEFDEVSRIVGSVEFDSMMNTV
# modifications: full-length
# B4: O95373 (protein, UniProt O95373 1-1038, looked up)
# chain: MDPNTIIEALRGTMDPALREAAERQLNEAHKSLNFVSTLLQITMSEQLDLPVRQAGVIYLKNMITQYWPDRETAPGDISPYTIPEEDRHCIRENIVEAIIHSPELIRVQLTTCIHHIIKHDYPSRWTAIVDKIGFYLQSDNSACWLGILLCLYQLVKNYEYKKPEERSPLVAAMQHFLPVLKDRFIQLLSDQSDQSVLIQKQIFKIFYALVQYTLPLELINQQNLTEWIEILKTVVNRDVPNETLQVEEDDRPELPWWKCKKWALHILARLFERYGSPGNVSKEYNEFAEVFLKAFAVGVQQVLLKVLYQYKEKQYMAPRVLQQTLNYINQGVSHALTWKNLKPHIQGIIQDVIFPLMCYTDADEELWQEDPYEYIRMKFDVFEDFISPTTAAQTLLFTACSKRKEVLQKTMGFCYQILTEPNADPRKKDGALHMIGSLAEILLKKKIYKDQMEYMLQNHVFPLFSSELGYMRARACWVLHYFCEVKFKSDQNLQTALELTRRCLIDDREMPVKVEAAIALQVLISNQEKAKEYITPFIRPVMQALLHIIRETENDDLTNVIQKMICEYSEEVTPIAVEMTQHLAMTFNQVIQTGPDEEGSDDKAVTAMGILNTIDTLLSVVEDHKEITQQLEGICLQVIGTVLQQHVLEFYEEIFSLAHSLTCQQVSPQMWQLLPLVFEVFQQDGFDYFTDMMPLLHNYVTVDTDTLLSDTKYLEMIYSMCKKVLTGVAGEDAECHAAKLLEVIILQCKGRGIDQCIPLFVEAALERLTREVKTSELRTMCLQVAIAALYYNPHLLLNTLENLRFPNNVEPVTNHFITQWLNDVDCFLGLHDRKMCVLGLCALIDMEQIPQVLNQVSGQILPAFILLFNGLKRAYACHAEHENDSDDDDEAEDDDETEELGSDEDDIDEDGQEYLEILAKQAGEDGDDEDWEEDDAEETALEGYSTIIDDEDNPVDEYQIFKAIFQTIQNRNPVWYQALTHGLNEEQRKQLQDIATLADQRRAAHESKMIEKHGGYKFSAPVVPSSFNFGGPAPGMN
# modifications: full-length
# B5: P31947 (protein, UniProt P31947 1-248, looked up)
# chain: MERASLIQKAKLAEQAERYEDMAAFMKGAVEKGEELSCEERNLLSVAYKNVVGGQRAAWRVLSSIEQKSNEEGSEEKGPEVREYREKVETELQGVCDTVLGLLDSHLIKEAGDAESRVFYLKMKGDYYRYLAEVATGDDKKRIIDSARSAYQEAMDISKKEMPPTNPIRLGLALNFSVFHYEIANSPEEAISLAKTTFDEAMADLHTLSEDSYKDSTLIMQLLRDNLTLWTADNAGEEGGEAPQEPQS
# modifications: full-length
# B6: Q16576 (protein, UniProt Q16576 1-425, looked up)
# chain: MASKEMFEDTVEERVINEEYKIWKKNTPFLYDLVMTHALQWPSLTVQWLPEVTKPEGKDYALHWLVLGTHTSDEQNHLVVARVHIPNDDAQFDASHCDSDKGEFGGFGSVTGKIECEIKINHEGEVNRARYMPQNPHIIATKTPSSDVLVFDYTKHPAKPDPSGECNPDLRLRGHQKEGYGLSWNSNLSGHLLSASDDHTVCLWDINAGPKEGKIVDAKAIFTGHSAVVEDVAWHLLHESLFGSVADDQKLMIWDTRSNTTSKPSHLVDAHTAEVNCLSFNPYSEFILATGSADKTVALWDLRNLKLKLHTFESHKDEIFQVHWSPHNETILASSGTDRRLNVWDLSKIGEEQSAEDAEDGPPELLFIHGGHTAKISDFSWNPNEPWVICSVSEDNIMQIWQMAENIYNDEESDVTTSELEGQGS
# modifications: full-length
# B7: HNRNPH1 (protein)
# chain: MMLGTEGGEGFVVKVRGLPWSCSADEVQRFFSDCKIQNGAQGIRFIYTREGRPSGEAFVELESEDEVKLALKKDRETMGHRYVEVFKSNNVEMDWVLKHTGPNSPDTANDGFVRLRGLPFGCSKEEIVQFFSGLEIVPNGITLPVDFQGRSTGEAFVQFASQEIAEKALKKHKERIGHRYIEIFKSSRAEVRTHYDPPRKLMAMQRPGPYDRPGAGRGYNSIGRGAGFERMRRGAYGGGYGGYDDYNGYNDGYGFGSDRFGRDLNYCFSGMSDHRYGDGGSTFQSTTGHCVHMRGLPYRATENDIYNFFSPLNPVRVHIEIGPDGRVTGEADVEFATHEDAVAAMSKDKANMQHRYVELFLNSTAGASGGAYEHRYVELFLNSTAGASGGAYGSQMMGGMGLSNQSSYGGPASQQLSGGYGGGYGGQSSMSGYGNQGAVNSSYYSSGSRASMGVNGMGGLSSMSSMSGGWGM
# System: proteins that co-immunoprecipitated with DUX4-CTD constructs expressed in MB135 myoblasts
# Assay: LC-MS of proteins co-immunoprecipitated with DUX4-CTD (Table 1) and western validation
# Format: binding, human
# Parameters: key to 4. mL1dL2 + Dox + IFNG / 4. + IFNG mix / 4. longCTD + Dox + IFNG / 3. + IFNg + Dox longCTD / 3. + Dox longCTD / 3. + IFNG longCTD: peptide-spectrum matches (PSMs) per protein
# Conditions: LC-MS counts of the listed protein co-immunoprecipitated with DUX4-CTD bait longCTD; experiment 4, Dox + IFNG
# Summary of the method: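 Two independent experiments compared uninduced, doxycycline and doxycycline+IFNG MB135iDUX4-CTD (plus MB135iDUX4mL1dL2) myoblasts. Anti-FLAG pulldowns (3 h, 4 °C) were eluted in LDS buffer for western validation or with FLAG peptide for trypsin digestion and Orbitrap LC-MS; hits needed ≥2 PSMs in both experiments, ranked by total PSMs.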
row,Molecule,4. longCTD + Dox + IFNG
1,B1,3
2,B2,6
3,B3,19
4,B4,1
5,B5,6
6,B6,5

# Same assay, conditions: LC-MS counts of the listed protein co-immunoprecipitated with DUX4-CTD bait mL1dL2; experiment 4, Dox + IFNG
row,Molecule,4. mL1dL2 + Dox + IFNG
1,B1,6
2,B4,3

# Same assay, conditions: LC-MS counts of the listed protein in anti-FLAG co-IP; experiment 4, IFNG, no doxycycline, mix; MB135 myoblasts
row,Molecule,4. + IFNG mix
1,B5,1

# Same assay, conditions: LC-MS value per protein co-immunoprecipitated with DUX4-CTD construct mL1dL2 in MB135 myoblasts; + Dox + IFNG; kind of count not given
row,Molecule,4. mL1dL2 + Dox + IFNG
1,B7,7

# Same assay, conditions: bait longCTD; experiment 3, Dox only
row,Molecule,3. + Dox longCTD
1,B1,1
2,B4,4

# Same assay, conditions: bait longCTD; experiment 3, IFNg + Dox
row,Molecule,3. + IFNg + Dox longCTD
1,B1,4
2,B2,7
3,B3,3
4,B4,8
5,B5,1
6,B6,4

# Same assay, conditions: sum over all samples
row,Molecule,SUM of PSMS
1,B1,14
2,B2,23
3,B3,43
4,B4,16
5,B5,8
6,B6,25
